Data published in PMC11707362, “Endothelial-secreted Endocan activates PDGFRA and regulates vascularity and spatial phenotype in glioblastoma” (Nature Communications, 2025).

Legend:
[1] = target: T1, Fc-tagged recombinant PDGFRA monomeric fragment (human, UniProt P16234 24-528); test: SPR
T1 chain: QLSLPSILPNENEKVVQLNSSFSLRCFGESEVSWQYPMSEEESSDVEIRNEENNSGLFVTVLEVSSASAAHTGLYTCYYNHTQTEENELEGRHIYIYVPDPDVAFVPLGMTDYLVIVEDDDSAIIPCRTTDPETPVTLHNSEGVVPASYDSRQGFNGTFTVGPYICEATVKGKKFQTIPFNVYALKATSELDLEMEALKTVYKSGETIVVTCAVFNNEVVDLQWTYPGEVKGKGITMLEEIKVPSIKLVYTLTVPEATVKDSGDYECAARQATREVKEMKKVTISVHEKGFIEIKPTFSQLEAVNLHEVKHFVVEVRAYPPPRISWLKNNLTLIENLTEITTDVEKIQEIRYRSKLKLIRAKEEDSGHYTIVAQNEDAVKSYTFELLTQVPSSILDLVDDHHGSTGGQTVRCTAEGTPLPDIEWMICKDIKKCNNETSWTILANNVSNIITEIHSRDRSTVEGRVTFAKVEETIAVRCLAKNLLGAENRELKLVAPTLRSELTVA

[2] = target: T2, Fc-tagged recombinant PDGFRA monomeric fragment (human, UniProt P16234 24-528); test: SPR; Biacore T200, CM5 chip, amine coupling, hPDGFRA immobilised, Endocan as analyte; HBS-EP (0.15 M NaCl, 3 mM EDTA, 0.005% P20, 0.01 M Hepes pH 7.4), 30 ul/min; KD = koff/kon at five concentrations; repeated with 1 and 10 ug/ml heparin without effect; details: both partners purified
T2 construct: PDGFRA (platelet-derived growth factor receptor alpha), human, recombinant 'monomeric fragment'; also called Fc-PDGFRA monomeric fragment; Fc-tagged rPDGFRA; source: bought: R&D

B1: recombinant His-tagged Endocan (ligand, UniProt Q9NQ30 20-184, looked up)
chain: WSNNYAVDCPQHCDSSECKSSPRCKRTVLDDCGCCRVCAAGRGETCYRTVSGMDGMKCGPGLRCQPSNGEDPFGEEFGICKDCPYGTFGMDCRETCNCQSGICDRGTGKCLKFPFFQYSVTKSSNRFVSLTEHDMASGDGNIVREEVVKENAAGSPVMRKWLNPR
notes: Endocan (ESM1 gene product), recombinant; the introduction describes the mature polypeptide as 165 amino acids; also called rEndocan; His6-Endocan; source: bought: R&D
Q: B1 was tested. Which koff [1] did it give?
A: The koff was 0.045 s⁻¹.

Q: And the Kd [2]?
A: Its Kd is 345 nM.
